# In patent US20250011379:
# Legend:
# soluble human C3b = soluble human C3b (UniProt P01024)
# human C4b = human C4b (UniProt P0C0L5)
# Sequence of human C4b (P0C0L5 whole entry, looked up): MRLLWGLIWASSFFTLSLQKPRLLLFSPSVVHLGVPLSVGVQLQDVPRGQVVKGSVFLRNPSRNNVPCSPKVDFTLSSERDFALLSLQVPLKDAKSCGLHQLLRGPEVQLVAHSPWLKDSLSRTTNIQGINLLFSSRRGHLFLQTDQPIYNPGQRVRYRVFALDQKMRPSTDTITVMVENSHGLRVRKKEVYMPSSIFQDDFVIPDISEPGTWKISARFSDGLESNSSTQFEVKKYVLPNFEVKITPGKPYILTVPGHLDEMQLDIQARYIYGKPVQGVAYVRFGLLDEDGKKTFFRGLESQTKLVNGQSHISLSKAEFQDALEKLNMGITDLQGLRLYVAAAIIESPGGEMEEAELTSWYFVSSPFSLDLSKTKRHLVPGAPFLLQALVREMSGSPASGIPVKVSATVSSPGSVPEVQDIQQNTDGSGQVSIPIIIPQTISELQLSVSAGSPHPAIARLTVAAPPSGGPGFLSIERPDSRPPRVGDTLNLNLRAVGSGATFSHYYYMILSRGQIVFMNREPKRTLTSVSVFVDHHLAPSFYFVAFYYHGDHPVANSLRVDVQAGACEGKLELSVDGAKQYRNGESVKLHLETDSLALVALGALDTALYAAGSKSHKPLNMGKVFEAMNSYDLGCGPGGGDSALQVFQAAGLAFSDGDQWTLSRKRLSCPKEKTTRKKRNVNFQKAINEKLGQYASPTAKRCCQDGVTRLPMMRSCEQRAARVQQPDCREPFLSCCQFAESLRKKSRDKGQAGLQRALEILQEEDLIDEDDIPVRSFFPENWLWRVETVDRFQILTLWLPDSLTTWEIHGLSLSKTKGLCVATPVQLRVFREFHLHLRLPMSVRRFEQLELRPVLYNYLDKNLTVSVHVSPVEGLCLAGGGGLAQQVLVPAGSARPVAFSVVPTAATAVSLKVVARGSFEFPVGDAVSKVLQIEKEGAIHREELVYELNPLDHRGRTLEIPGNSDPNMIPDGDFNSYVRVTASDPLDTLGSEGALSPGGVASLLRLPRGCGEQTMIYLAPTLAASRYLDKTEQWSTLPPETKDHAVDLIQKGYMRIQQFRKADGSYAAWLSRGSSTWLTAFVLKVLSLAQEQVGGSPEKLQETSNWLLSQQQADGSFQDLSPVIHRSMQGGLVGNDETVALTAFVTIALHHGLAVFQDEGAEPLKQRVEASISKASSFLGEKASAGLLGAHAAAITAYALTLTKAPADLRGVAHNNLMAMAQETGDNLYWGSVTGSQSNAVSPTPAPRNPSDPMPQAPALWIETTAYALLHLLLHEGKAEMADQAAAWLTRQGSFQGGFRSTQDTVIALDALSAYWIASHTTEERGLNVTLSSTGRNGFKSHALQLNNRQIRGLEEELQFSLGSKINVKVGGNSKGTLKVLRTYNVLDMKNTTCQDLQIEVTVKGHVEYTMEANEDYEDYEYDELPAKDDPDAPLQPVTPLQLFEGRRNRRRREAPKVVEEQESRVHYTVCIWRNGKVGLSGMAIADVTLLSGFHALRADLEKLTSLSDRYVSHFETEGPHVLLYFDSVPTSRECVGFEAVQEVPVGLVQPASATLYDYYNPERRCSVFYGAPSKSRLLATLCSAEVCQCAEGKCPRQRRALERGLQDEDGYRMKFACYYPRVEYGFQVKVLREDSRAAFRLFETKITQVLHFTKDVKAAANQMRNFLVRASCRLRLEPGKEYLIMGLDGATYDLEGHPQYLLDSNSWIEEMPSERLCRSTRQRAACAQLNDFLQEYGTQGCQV
# Sequence of soluble human C3b (P01024 whole entry, looked up, tested part not stated): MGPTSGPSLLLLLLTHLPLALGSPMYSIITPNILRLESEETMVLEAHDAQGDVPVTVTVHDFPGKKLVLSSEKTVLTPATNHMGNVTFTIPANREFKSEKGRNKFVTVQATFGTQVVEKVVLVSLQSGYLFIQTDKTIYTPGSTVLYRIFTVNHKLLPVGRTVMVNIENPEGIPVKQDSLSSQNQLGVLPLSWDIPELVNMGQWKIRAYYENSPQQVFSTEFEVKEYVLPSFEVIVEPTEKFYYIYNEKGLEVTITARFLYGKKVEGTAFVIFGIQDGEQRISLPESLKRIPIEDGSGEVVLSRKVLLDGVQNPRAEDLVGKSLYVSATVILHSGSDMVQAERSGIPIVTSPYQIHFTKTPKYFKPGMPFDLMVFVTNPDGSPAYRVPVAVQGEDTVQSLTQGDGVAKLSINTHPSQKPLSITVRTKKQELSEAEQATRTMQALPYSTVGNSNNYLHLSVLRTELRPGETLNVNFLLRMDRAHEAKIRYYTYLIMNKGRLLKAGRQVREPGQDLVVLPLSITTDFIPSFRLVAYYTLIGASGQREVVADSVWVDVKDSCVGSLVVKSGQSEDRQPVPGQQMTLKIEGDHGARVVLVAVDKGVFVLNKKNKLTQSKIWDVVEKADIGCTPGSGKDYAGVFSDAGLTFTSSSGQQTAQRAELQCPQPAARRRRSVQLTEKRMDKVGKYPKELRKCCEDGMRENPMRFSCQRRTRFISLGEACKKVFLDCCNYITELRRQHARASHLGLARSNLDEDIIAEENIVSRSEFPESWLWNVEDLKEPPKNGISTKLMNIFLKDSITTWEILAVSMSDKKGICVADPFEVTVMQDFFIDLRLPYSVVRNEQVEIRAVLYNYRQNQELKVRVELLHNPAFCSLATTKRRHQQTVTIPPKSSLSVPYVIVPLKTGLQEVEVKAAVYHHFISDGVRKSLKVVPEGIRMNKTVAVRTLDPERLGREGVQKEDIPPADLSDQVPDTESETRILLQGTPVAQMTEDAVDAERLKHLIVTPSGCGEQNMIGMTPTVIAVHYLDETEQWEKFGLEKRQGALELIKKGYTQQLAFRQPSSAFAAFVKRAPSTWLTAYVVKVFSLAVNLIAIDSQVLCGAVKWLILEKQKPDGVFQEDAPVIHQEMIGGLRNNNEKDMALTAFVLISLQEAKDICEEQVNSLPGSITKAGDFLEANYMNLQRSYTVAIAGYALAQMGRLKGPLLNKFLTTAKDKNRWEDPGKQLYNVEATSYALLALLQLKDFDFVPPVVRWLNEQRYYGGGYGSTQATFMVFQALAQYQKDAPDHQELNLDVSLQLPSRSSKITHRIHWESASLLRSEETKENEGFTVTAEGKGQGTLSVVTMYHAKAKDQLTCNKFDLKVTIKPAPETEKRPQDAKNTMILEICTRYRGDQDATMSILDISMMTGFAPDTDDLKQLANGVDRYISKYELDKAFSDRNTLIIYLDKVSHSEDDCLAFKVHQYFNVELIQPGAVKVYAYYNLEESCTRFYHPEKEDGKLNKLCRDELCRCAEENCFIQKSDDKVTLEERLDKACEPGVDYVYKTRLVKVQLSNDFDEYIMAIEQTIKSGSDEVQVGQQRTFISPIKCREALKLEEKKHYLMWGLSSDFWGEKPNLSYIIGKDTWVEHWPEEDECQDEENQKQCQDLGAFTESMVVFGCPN
# Sequence of Const. No. 80: HSA-GGSSGG-hCFI; Δ(1-KVTYTS-6)(SEQ ID NO: 35) > RSPSASDLP (SEQ ID NO: 36) (chain): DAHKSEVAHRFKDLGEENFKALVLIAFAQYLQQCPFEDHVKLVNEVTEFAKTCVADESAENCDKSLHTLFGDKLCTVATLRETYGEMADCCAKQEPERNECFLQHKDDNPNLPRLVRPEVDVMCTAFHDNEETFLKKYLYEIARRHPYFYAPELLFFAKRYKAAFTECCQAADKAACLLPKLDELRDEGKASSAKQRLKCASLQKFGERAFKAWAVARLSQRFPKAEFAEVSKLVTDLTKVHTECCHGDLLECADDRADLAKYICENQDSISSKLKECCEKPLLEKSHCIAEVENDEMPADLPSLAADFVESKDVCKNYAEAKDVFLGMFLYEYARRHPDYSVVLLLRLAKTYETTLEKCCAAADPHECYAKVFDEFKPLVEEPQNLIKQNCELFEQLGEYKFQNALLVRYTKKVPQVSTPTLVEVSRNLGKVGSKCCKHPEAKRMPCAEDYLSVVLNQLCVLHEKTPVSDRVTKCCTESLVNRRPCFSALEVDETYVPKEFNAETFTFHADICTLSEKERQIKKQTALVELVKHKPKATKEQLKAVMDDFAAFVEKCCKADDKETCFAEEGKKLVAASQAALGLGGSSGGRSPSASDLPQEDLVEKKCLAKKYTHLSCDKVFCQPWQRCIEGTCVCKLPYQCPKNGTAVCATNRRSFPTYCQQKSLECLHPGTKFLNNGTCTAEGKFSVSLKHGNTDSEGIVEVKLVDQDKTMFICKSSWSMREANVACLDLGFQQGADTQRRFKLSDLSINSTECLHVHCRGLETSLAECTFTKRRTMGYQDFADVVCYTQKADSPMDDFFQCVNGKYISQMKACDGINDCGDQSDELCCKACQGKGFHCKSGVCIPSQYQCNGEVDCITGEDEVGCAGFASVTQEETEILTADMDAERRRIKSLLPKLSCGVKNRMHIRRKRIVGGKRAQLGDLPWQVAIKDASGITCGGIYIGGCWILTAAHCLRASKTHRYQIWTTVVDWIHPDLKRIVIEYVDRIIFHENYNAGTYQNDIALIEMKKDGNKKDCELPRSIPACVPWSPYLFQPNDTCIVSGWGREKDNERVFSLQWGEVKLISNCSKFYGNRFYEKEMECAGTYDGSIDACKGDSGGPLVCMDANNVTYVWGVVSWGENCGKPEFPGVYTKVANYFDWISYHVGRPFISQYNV
Substance,iC3b ref fold (soluble human C3b),C4c ref fold (human C4b)
Const. No. 45: HSA-GGSSGG-hCFI; R484A,0.7 fold,1.3 fold
Const. No. 56: HSA-GGSSGG-hCFI; D395A; D425A,1.77 fold,0.65 fold
Const. No. 13: HSA-GGSSGG-hCFI; S499G,0.34 fold,0.72 fold
Const. No. 4: HSA-GGSSGG-hCFI; L307H,0.89 fold,3.55 fold
Const. No. 5: HSA-GGSSGG-hCFI; L307W,0.79 fold,3.89 fold
Const. No. 21: HSA-GGSSGG-hCFI; K423R,0.55 fold,1.44 fold
Const. No. 91: HSA-GGSSGG-hCFI; T377A; E457G; N531G,1.7 fold,4.59 fold
Const. No. 32: HSA-GGSSGG-hCFI; N402R,1.47 fold,0.98 fold
Const. No. 47: HSA-GGSSGG-hCFI; R484E,0.35 fold,0.93 fold
Const. No. 24: HSA-GGSSGG-hCFI; R62L,0.19 fold,0.59 fold
Const. No. 35: HSA-GGSSGG-hCFI; R371E,0.04 fold,2.02 fold
Const. No. 70: HSA-GGSSGGSSGG-Rat CFI,0.94 fold,4.12 fold
Const. No. 26: HSA-GGSSGG-hCFI; E401K,2.37 fold,1.92 fold
Const. No. 34: HSA-GGSSGG-hCFI; H554K,2.11 fold,2.62 fold
Const. No. 93: HSA-GGSSGG-hCFI; T377A,1.09 fold,2.36 fold
Const. No. 60: HSA-GGSSGG-hCFI; K368D,0.03 fold,1.39 fold
Const. No. 89: HSA-GGSSGG-hCFI; T377G; E457G; N531G-GGSSGG-hCR1; CCP15; CCP16; CCP17; hFH; CCP4-GGGGGGGGGGGG-hFH; CCP19; CCP20,0.05 fold,3.21 fold
Const. No. 18: HSA-GGSSGG-hCFI; S499G; I500K,0.16 fold,0.08 fold
Const. No. 20: HSA-GGSSGG-hCFI; T495F; Y496L; S499G; I500K,0 fold,0.05 fold
Const. No. 38: HSA-GGSSGG-hCFI; N52A,0.72 fold,2.93 fold
Const. No. 54: HSA-GGSSGG-hCFI; D395K,2.06 fold,1.61 fold
Const. No. 39: HSA-GGSSGG-hCFI; A55P,1.1 fold,2.83 fold
Const. No. 30: HSA-GGSSGG-hCFI; N402G,1.44 fold,0.73 fold
Const. No. 44: HSA-GGSSGG-hCFI; Δ(275-CAGFASVAQE-284)(SEQ ID NO: 31) > CEEDRQQNIPKGLARSAQGEAEIETE (SEQ ID NO: 32) + GGSSGG (SEQ ID NO: 6) + CR1(ccp15-17),0.03 fold,3.47 fold
"Const. No. 95: HSA linked with CFI (CFI-HSA), wild type",1 fold,1 fold
Const. No. 64: HSA-GGSSGG-hCFI-GGSSGG-hCR1; CCP8; CCP9; CCP10,0.06 fold,4.11 fold
Const. No. 15: HSA-GGSSGG-hCFI; S499K,0.67 fold,1.98 fold

Substance,iC3b ref fold (soluble human C3b),C4c ref fold (human C4b)
Const. No. 31: HSA-GGSSGG-hCFI; N402K,1.53 fold,1.14 fold
Const. No. 53: HSA-GGSSGG-hCFI; D395G,1.52 fold,0.8 fold
Const. No. 28: HSA-GGSSGG-hCFI; E401A,1.87 fold,0.86 fold
Const. No. 23: HSA-GGSSGG-hCFI; R62E,0.04 fold,0.1 fold
Const. No. 12: HSA-GGSSGG-hCFI; Δ(Y496; D497),0.18 fold,0.9 fold
Const. No. 40: HSA-GGSSGG-hCFI; T59E,0.68 fold,2.17 fold
Const. No. 57: HSA-GGSSGG-hCFI; D395A; E416A,0.76 fold,0.06 fold
Const. No. 16: HSA-GGSSGG-hCFI; S499V,0.18 fold,1.24 fold
Const. No. 58: HSA-GGSSGG-hCFI; D395A; E416A; D425A,0.77 fold,0.06 fold
Const. No. 43: HSA-GGSSGG-hCFI; Δ(275-CAGFASVAQE-284)(SEQ ID NO: 31) > CEEDRQQNIPKGLARSAQGEAEIETE (SEQ ID NO: 32),0.89 fold,1.54 fold
Const. No. 42: HSA-GGSSGG-hCFI; L73D,0.08 fold,2.33 fold
Const. No. 7: HSA-GGSSGG-hCFI; P433A,0.8 fold,0.81 fold
Const. No. 71: HSA-GGSSGGSSGG-Gorilla CFI,0.07 fold,0.09 fold
Const. No. 11: HSA-GGSSGG-hCFI; Δ(D497),-0.01 fold,-0.02 fold
Const. No. 77: HSA-GGSSGG-hCFI; H383K; R388Q; E392Q; Y393T; K419M,1.21 fold,3.81 fold
Const. No. 1: HSA-GGSSGG-hCFI; F559W,1.39 fold,1.08 fold
Const. No. 27: HSA-GGSSGG-hCFI; E401R,2.12 fold,2.93 fold
Const. No. 33: HSA-GGSSGG-hCFI; H554F,1 fold,0.55 fold
Const. No. 52: HSA-GGSSGG-hCFI; D395A,1.55 fold,0.78 fold
Const. No. 10: HSA-GGSSGG-hCFI; Δ(Y496),0.03 fold,0.02 fold
Const. No. 59: HSA-GGSSGG-hCFI; N402D,0.74 fold,1.66 fold
Const. No. 37: HSA-GGSSGG-hCFI; K51R; N52A; A55P; T59M; R61G; F64Y,1.12 fold,3.59 fold
Const. No. 6: HSA-GGSSGG-hCFI; L307Y,0.63 fold,2.98 fold
Const. No. 41: HSA-GGSSGG-hCFI; L73F,0.9 fold,2.36 fold
Const. No. 51: HSA-GGSSGG-hCFI; E416R,1.87 fold,1.17 fold
Const. No. 74: HSA-GGSSGGSSGG-Bovine CFI,1.67 fold,2.19 fold
Const. No. 72: HSA-GGSSGGSSGG-Cyno CFI,3.17 fold,0.34 fold

Substance,iC3b ref fold (soluble human C3b),C4c ref fold (human C4b)
Const. No. 19: HSA-GGSSGG-hCFI; S499A; I500K,0.02 fold,-0.05 fold
Const. No. 8: HSA-GGSSGG-hCFI; P433G,0.14 fold,0.39 fold
Const. No. 22: HSA-GGSSGG-hCFI; R62A,0.23 fold,1.07 fold
Const. No. 55: HSA-GGSSGG-hCFI; D395R,1.85 fold,1.38 fold
Const. No. 76: HSA-GGSSGG-hCFI; H383K; D385N; K387S; R388Q; E392Q; Y393T; D395K; K419M; D420H; G421T; N422G; D425E,2.11 fold,4.46 fold
Const. No. 36: HSA-GGSSGG-hCFI; A342R,1.73 fold,2.08 fold
Const. No. 17: HSA-GGSSGG-hCFI; Y496L,0.44 fold,1.54 fold
Const. No. 2: HSA-GGSSGG-hCFI; F559H,1.73 fold,0.58 fold
Const. No. 68: HSA-GGSSGG-hCFI-GGSSGG-hCR1; CCP1; CCP2; CCP3-GGSSGG-hCR1; CCP15; CCP16; CCP17,0.06 fold,3.75 fold
Const. No. 3: HSA-GGSSGG-hCFI; L307F,1.01 fold,3.48 fold
Const. No. 50: HSA-GGSSGG-hCFI; E416K,1.89 fold,1.23 fold
Const. No. 78: HSA-GGSSGG-hCFI; K51D; T59E; R61D,0 fold,-0.24 fold
Const. No. 14: HSA-GGSSGG-hCFI; S499A,1.36 fold,0.45 fold
Const. No. 9: HSA-GGSSGG-hCFI; P433F,0.07 fold,0.05 fold
Const. No. 25: HSA-GGSSGG-hCFI; R62H,0.29 fold,0.74 fold
Const. No. 75: HSA-GGSSGGSSGG-Alligator CFI,-0.03 fold,0.12 fold
Const. No. 46: HSA-GGSSGG-hCFI; R484K,1.21 fold,0.76 fold
Const. No. 92: HSA-GGSSGG-hCFI; N422A,0.72 fold,1.52 fold
Const. No. 48: HSA-GGSSGG-hCFI; Δ(V565) > VG,0 fold,0.67 fold
Const. No. 29: HSA-GGSSGG-hCFI; E401F,1.64 fold,0.5 fold
Const. No. 67: HSA-GGSSGG-hCFI-GGSSGG-hCR1; CCP1; CCP2; CCP3; CCP4,-0.01 fold,3.2 fold
Const. No. 49: HSA-GGSSGG-hCFI; Δ(V565) > VY,0.15 fold,1.47 fold
Const. No. 80: HSA-GGSSGG-hCFI; Δ(1-KVTYTS-6)(SEQ ID NO: 35) > RSPSASDLP (SEQ ID NO: 36),0.91 fold,3.07 fold
Const. No. 73: HSA-GGSSGGSSGG-Chimp CFI,0.08 fold,-0.03 fold
Const. No. 79: HSA-GGSSGG-hCFI; Q69H; L73F; G79E; T80I; L83S; N84H,1.63 fold,3.36 fold
Const. No. 81: HSA-GGSSGG-hCFI; M186E; G187L; Y188S; Q189N; D190G; F191L; D193G,0.95 fold,3.31 fold
